From PMC11653614
Where “and” joins values, the source holds several entries; their conditions need not be identical. Equal entries are not always repeated.

Biological target: Pyruvate kinase M2 (mouse (endogenous in mouse skin)) (UniProt P52480)
Test: not stated; detection of dimeric and tetrameric PKM2 protein levels in the skin from sham and skin flap mice on postoperative day 7

Sequence of Pyruvate kinase M2, P52480 1-531 (enzyme; other documents disagree on this pair) (P52480 whole entry): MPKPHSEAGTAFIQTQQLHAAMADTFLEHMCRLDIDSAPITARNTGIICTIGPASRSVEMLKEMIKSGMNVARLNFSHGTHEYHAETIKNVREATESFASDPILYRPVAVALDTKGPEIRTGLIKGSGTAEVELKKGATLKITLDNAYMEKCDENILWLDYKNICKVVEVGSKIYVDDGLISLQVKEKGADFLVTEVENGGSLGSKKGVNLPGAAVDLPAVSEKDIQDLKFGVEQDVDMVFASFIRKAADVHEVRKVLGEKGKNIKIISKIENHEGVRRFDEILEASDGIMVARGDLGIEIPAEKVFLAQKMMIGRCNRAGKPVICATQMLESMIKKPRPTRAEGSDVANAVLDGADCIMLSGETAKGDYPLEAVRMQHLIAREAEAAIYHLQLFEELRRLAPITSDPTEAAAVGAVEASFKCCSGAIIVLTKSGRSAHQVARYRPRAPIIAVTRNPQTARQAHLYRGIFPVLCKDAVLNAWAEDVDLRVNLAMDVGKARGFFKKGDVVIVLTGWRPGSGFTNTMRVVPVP

stoichiometry N: 4 and 2
Substance: Pyruvate kinase M2, P52480 1-531 (enzyme; other documents disagree on this pair)
